T1: EsCas13d, nuclease-dead (Eubacterium siraeum, UniProt B0MS50, R295A;H300A;R849A;H854A)
T1 sequence: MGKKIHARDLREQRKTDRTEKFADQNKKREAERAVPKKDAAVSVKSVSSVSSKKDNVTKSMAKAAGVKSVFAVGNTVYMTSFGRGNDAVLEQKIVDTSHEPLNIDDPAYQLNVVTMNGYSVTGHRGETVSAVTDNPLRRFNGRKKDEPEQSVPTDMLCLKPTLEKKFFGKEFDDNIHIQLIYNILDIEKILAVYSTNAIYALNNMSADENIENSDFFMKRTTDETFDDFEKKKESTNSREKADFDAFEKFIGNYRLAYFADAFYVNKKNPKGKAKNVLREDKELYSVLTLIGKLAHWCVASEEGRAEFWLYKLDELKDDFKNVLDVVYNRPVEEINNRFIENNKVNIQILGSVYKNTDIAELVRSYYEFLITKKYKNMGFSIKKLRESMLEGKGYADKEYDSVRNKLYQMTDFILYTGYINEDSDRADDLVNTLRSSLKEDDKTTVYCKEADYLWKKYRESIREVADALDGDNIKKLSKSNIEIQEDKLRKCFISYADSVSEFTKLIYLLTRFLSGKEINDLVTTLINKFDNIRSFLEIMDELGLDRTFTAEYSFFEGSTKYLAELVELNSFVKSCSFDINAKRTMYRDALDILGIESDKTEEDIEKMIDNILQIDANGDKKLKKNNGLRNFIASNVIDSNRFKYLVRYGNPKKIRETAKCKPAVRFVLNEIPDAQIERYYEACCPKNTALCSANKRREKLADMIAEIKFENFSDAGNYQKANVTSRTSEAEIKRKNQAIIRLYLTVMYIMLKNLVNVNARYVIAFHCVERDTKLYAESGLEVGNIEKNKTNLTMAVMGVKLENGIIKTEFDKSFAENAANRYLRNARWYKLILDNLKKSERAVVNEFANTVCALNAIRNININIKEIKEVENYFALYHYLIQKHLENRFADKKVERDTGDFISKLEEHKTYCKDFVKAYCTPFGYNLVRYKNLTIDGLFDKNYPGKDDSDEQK


Molecular target: T1, EsCas13d, nuclease-dead
Experiment: crRNA (strand 1, pre-loaded); Mg2+; 40 mM Tris-HCl pH 7.5, 150 mM NaCl, 6 mM MgCl2, 1 mM DTT, 0.1% Tween-20, 0.2 mg/ml BSA; 25 C; 10 min per concentration, then washed
Conditions: tags: His6-TwinStrep-SUMO cleaved; N-terminal SNAP kept (SNAP-Surface 488); label: 3' end held by stalled T7 RNA polymerase

Binder	Kd [nM]
target 1 MT 5'PFS GAG 3'PFS UAA (mixed) RNA 1: CACCCGUGCAAAAAUGCAGGGGUCUAAAACUGAGCGGAUAACCUCUCUAUGG RNA 2: GGGAAUGGAUCCACAUCUACGAAUUCGAGCCAUAGAGAGGUUAUCCGCUCAUAAAGAUCGGAAGAGCACACGU	28.5 ± 8
target 1 MT 5'PFS CUG 3'PFS CCG (mixed) RNA 1: CACCCGUGCAAAAAUGCAGGGGUCUAAAACUGAGCGGAUAACCUCUCUAUGG RNA 2: GGGAAUGGAUCCACAUCUACGAAUUCCUGCCAUAGAGAGGUUAUCCGCUCACCGAGAUCGGAAGAGCACACGU	3.05 ± 0.55
target 1 MT 5'PFS AUG 3'PFS UGA (mixed) RNA 1: CACCCGUGCAAAAAUGCAGGGGUCUAAAACUGAGCGGAUAACCUCUCUAUGG RNA 2: GGGAAUGGAUCCACAUCUACGAAUUCAUGCCAUAGAGAGGUUAUCCGCUCAUGAAGAUCGGAAGAGCACACGU	52 ± 19.5
target 1 MT 5'PFS CCU 3'PFS AAC (mixed) RNA 1: CACCCGUGCAAAAAUGCAGGGGUCUAAAACUGAGCGGAUAACCUCUCUAUGG RNA 2: GGGAAUGGAUCCACAUCUACGAAUUCCCUCCAUAGAGAGGUUAUCCGCUCAAACAGAUCGGAAGAGCACACGU	18 ± 4.5
target 1 MT 5'PFS CGC 3'PFS CCG (mixed) RNA 1: CACCCGUGCAAAAAUGCAGGGGUCUAAAACUGAGCGGAUAACCUCUCUAUGG RNA 2: GGGAAUGGAUCCACAUCUACGAAUUCCGCCCAUAGAGAGGUUAUCCGCUCACCGAGAUCGGAAGAGCACACGU	19 ± 7
target 1 MT 5'PFS ACG 3'PFS CUA (mixed) RNA 1: CACCCGUGCAAAAAUGCAGGGGUCUAAAACUGAGCGGAUAACCUCUCUAUGG RNA 2: GGGAAUGGAUCCACAUCUACGAAUUCACGCCAUAGAGAGGUUAUCCGCUCACUAAGAUCGGAAGAGCACACGU	~32
target 1 MT 5'PFS AGG 3'PFS CGG (mixed) RNA 1: CACCCGUGCAAAAAUGCAGGGGUCUAAAACUGAGCGGAUAACCUCUCUAUGG RNA 2: GGGAAUGGAUCCACAUCUACGAAUUCAGGCCAUAGAGAGGUUAUCCGCUCACGGAGAUCGGAAGAGCACACGU	41 ± 11.5
target 1 MT 5'PFS GCA 3'PFS CGC (mixed) RNA 1: CACCCGUGCAAAAAUGCAGGGGUCUAAAACUGAGCGGAUAACCUCUCUAUGG RNA 2: GGGAAUGGAUCCACAUCUACGAAUUCGCACCAUAGAGAGGUUAUCCGCUCACGCAGAUCGGAAGAGCACACGU	71 ± 27
target 1 MT 5'PFS GGC 3'PFS ACA (mixed) RNA 1: CACCCGUGCAAAAAUGCAGGGGUCUAAAACUGAGCGGAUAACCUCUCUAUGG RNA 2: GGGAAUGGAUCCACAUCUACGAAUUCGGCCCAUAGAGAGGUUAUCCGCUCAACAAGAUCGGAAGAGCACACGU	20 ± 10
target 1 MT 5'PFS GCA 3'PFS CGU (mixed) RNA 1: CACCCGUGCAAAAAUGCAGGGGUCUAAAACUGAGCGGAUAACCUCUCUAUGG RNA 2: GGGAAUGGAUCCACAUCUACGAAUUCGCACCAUAGAGAGGUUAUCCGCUCACGUAGAUCGGAAGAGCACACGU	11.4 ± 2.2
target 1 MT 5'PFS GGC 3'PFS ACG (mixed) RNA 1: CACCCGUGCAAAAAUGCAGGGGUCUAAAACUGAGCGGAUAACCUCUCUAUGG RNA 2: GGGAAUGGAUCCACAUCUACGAAUUCGGCCCAUAGAGAGGUUAUCCGCUCAACGAGAUCGGAAGAGCACACGU	13.5 ± 2.85
target 1 MT 5'PFS AGG 3'PFS CGU (mixed) RNA 1: CACCCGUGCAAAAAUGCAGGGGUCUAAAACUGAGCGGAUAACCUCUCUAUGG RNA 2: GGGAAUGGAUCCACAUCUACGAAUUCAGGCCAUAGAGAGGUUAUCCGCUCACGUAGAUCGGAAGAGCACACGU	~90
target 1 MT 5'PFS GAA 3'PFS CCU (mixed) RNA 1: CACCCGUGCAAAAAUGCAGGGGUCUAAAACUGAGCGGAUAACCUCUCUAUGG RNA 2: GGGAAUGGAUCCACAUCUACGAAUUCGAACCAUAGAGAGGUUAUCCGCUCACCUAGAUCGGAAGAGCACACGU	~21
target 1 MT 5'PFS CCU 3'PFS AAA (mixed) RNA 1: CACCCGUGCAAAAAUGCAGGGGUCUAAAACUGAGCGGAUAACCUCUCUAUGG RNA 2: GGGAAUGGAUCCACAUCUACGAAUUCCCUCCAUAGAGAGGUUAUCCGCUCAAAAAGAUCGGAAGAGCACACGU	59.5 ± 20
target 1 MT 5'PFS AAG 3'PFS AGA (mixed) RNA 1: CACCCGUGCAAAAAUGCAGGGGUCUAAAACUGAGCGGAUAACCUCUCUAUGG RNA 2: GGGAAUGGAUCCACAUCUACGAAUUCAAGCCAUAGAGAGGUUAUCCGCUCAAGAAGAUCGGAAGAGCACACGU	38 ± 14
target 1 insC 3' of 20,insC 3' of 18 (mixed) RNA 1: CACCCGUGCAAAAAUGCAGGGGUCUAAAACUGAGCGGAUAACCUCUCUAUGG RNA 2: GGGAAUGGAUCCACAUCUACGAAUUCGUACCACUACGAGAGGUUAUCCGCUCACCGAGAUCGGAAGAGCACACGU	6.1 ± 0.5
target 1 MT 5'PFS GAA 3'PFS CCG (mixed) RNA 1: CACCCGUGCAAAAAUGCAGGGGUCUAAAACUGAGCGGAUAACCUCUCUAUGG RNA 2: GGGAAUGGAUCCACAUCUACGAAUUCGAACCAUAGAGAGGUUAUCCGCUCACCGAGAUCGGAAGAGCACACGU	21 ± 5.5
target 1 C4A,A9U (mixed) RNA 1: CACCCGUGCAAAAAUGCAGGGGUCUAAAACUGAGCGGAUAACCUCUCUAUGG RNA 2: GGGAAUGGAUCCACAUCUACGAAUUCGUACCAUAGAGAGGUUUUCCGAUCACCGAGAUCGGAAGAGCACACGU	4.45 ± 0.25
target 1 MT 5'PFS AAG 3'PFS AGG (mixed) RNA 1: CACCCGUGCAAAAAUGCAGGGGUCUAAAACUGAGCGGAUAACCUCUCUAUGG RNA 2: GGGAAUGGAUCCACAUCUACGAAUUCAAGCCAUAGAGAGGUUAUCCGCUCAAGGAGAUCGGAAGAGCACACGU	60.5 ± 22.5
target 1 MT 5'PFS AGG 3'PFS CGC (mixed) RNA 1: CACCCGUGCAAAAAUGCAGGGGUCUAAAACUGAGCGGAUAACCUCUCUAUGG RNA 2: GGGAAUGGAUCCACAUCUACGAAUUCAGGCCAUAGAGAGGUUAUCCGCUCACGCAGAUCGGAAGAGCACACGU	44 ± 19
target 1 MT 5'PFS GAG 3'PFS UAC (mixed) RNA 1: CACCCGUGCAAAAAUGCAGGGGUCUAAAACUGAGCGGAUAACCUCUCUAUGG RNA 2: GGGAAUGGAUCCACAUCUACGAAUUCGAGCCAUAGAGAGGUUAUCCGCUCAUACAGAUCGGAAGAGCACACGU	~60
target 1 MT 5'PFS UGA 3'PFS ACG (mixed) RNA 1: CACCCGUGCAAAAAUGCAGGGGUCUAAAACUGAGCGGAUAACCUCUCUAUGG RNA 2: GGGAAUGGAUCCACAUCUACGAAUUCUGACCAUAGAGAGGUUAUCCGCUCAACGAGAUCGGAAGAGCACACGU	110 ± 50
target 1 C2U,G12C (mixed) RNA 1: CACCCGUGCAAAAAUGCAGGGGUCUAAAACUGAGCGGAUAACCUCUCUAUGG RNA 2: GGGAAUGGAUCCACAUCUACGAAUUCGUACCAUAGAGAGCUUAUCCGCUUACCGAGAUCGGAAGAGCACACGU	7.1 ± 0.5
target 1 MT 5'PFS CUG 3'PFS AAG (mixed) RNA 1: CACCCGUGCAAAAAUGCAGGGGUCUAAAACUGAGCGGAUAACCUCUCUAUGG RNA 2: GGGAAUGGAUCCACAUCUACGAAUUCCUGCCAUAGAGAGGUUAUCCGCUCAAAGAGAUCGGAAGAGCACACGU	12.4 ± 3.4
target 1 MT 5'PFS GAG 3'PFS UAG (mixed) RNA 1: CACCCGUGCAAAAAUGCAGGGGUCUAAAACUGAGCGGAUAACCUCUCUAUGG RNA 2: GGGAAUGGAUCCACAUCUACGAAUUCGAGCCAUAGAGAGGUUAUCCGCUCAUAGAGAUCGGAAGAGCACACGU	46.5 ± 15.5
target 1 MT 5'PFS CAG 3'PFS UUG (mixed) RNA 1: CACCCGUGCAAAAAUGCAGGGGUCUAAAACUGAGCGGAUAACCUCUCUAUGG RNA 2: GGGAAUGGAUCCACAUCUACGAAUUCCAGCCAUAGAGAGGUUAUCCGCUCAUUGAGAUCGGAAGAGCACACGU	19.7 ± 3.55
target 1 MT 5'PFS ACC 3'PFS UGU (mixed) RNA 1: CACCCGUGCAAAAAUGCAGGGGUCUAAAACUGAGCGGAUAACCUCUCUAUGG RNA 2: GGGAAUGGAUCCACAUCUACGAAUUCACCCCAUAGAGAGGUUAUCCGCUCAUGUAGAUCGGAAGAGCACACGU	~19
target 1 MT 5'PFS GCA 3'PFS ACC (mixed) RNA 1: CACCCGUGCAAAAAUGCAGGGGUCUAAAACUGAGCGGAUAACCUCUCUAUGG RNA 2: GGGAAUGGAUCCACAUCUACGAAUUCGCACCAUAGAGAGGUUAUCCGCUCAACCAGAUCGGAAGAGCACACGU	~32

Reference: article PMC10786891, “Massively parallel profiling of RNA-targeting CRISPR-Cas13d”
